Assay results from patent US20160244511A1 (published 2016).

B1: AB-28 Fab fragment (Fab, V domains shown)
VH: QVQLQESGPGLVKPSETLSLTCAVSGYSISSGMGWGWIRQPPGKGLEWIGSIDQRGSTYYNPSLKSRVTISVDTSKNQFSLKLSSVTAADTAVYYCARDAGHGVDMDVWGKGTTVTVSS
VL: DIQMTQSPSSVSASVGDRVTITCRASQGISRWLAWYQQKPGKAPKLLIYAASSLQSGVPSRFSGSGSGTDFTLTISSLQPEDFATYYCQQGYVFPLTFGGGTKVEIK
B2: AB-28-8 Fab (Fab, V domains shown)
VH: QVQLQESGPGLVKPSETLSLTCAVSGYSISSGMGWDWIRQPPGKGLEWIGSIDQRGSTYYNPPLESRVTISVDTSKNQFSLKLSSVTAADTAVYYCARDAGHGVDMDVWGKGTTVTVSS
VL: DIQMTQSPSSVSASVGDRVTITCRASQGISRWLAWYQQKPGKAPKLLIYAASSLQSGVPSRFSGSGSGTDFTLTISSLQPEDFATYYCQQGYVFPLTFGGGTKVEIK
B3: AB-28-6 Fab (Fab, V domains shown)
VH: QVQLQESGPGLVRPSETLSLTCAVSGYSISSGMGWGWIRQPPGKGLEWIGSIDQRGSTYYNPSLKSRVTISVDTSKNQFSLKLSSVTAADTAVYYCARDAGHAVDMDVWGKGTTVTVSS
VL: DIQMTQSPSSVSASVGDRVTITCRASQGISRWLAWYQQKPGKAPKLLIYAASSLQSGVPSRFSGSGSGTDFTLTISSLQPEDFATYYCQQGYVFPLTFGGGTKVEIK
B4: AB-28-7 Fab (Fab, V domains shown)
VH: QVQLQESGPGLVKPSETLSLTCAVSGYSISSGMGWDWIRQPPGKGREWIGSIDQRGSTYYNPSLEGRATISVDTSKNQFSLKLSSVTAADTAVYYCARDAGHGVDMDVWGKGTTVTVSS
VL: DIQMTQSPSSVSASVGDRVTITCRASQGISRWLAWYQQKPGKAPKLLIYAASSLQSGVPSRFSGSGSGTDFTLTISSLQPEDFATYYCQQGYVFPLTFGGGTKVEIK
B5: AB-28-9 Fab (Fab, V domains shown)
VH: EVQLQESGPGLVRPSETLSLTCAVSGYSISSGMGWGWIRQPPGKGLEWIGSIDQRGSTYYNPSLKSRVTISVDTSKNQFSLKLSSVTAADTAVYYCARDAGHAVDMDVWGKGTTVTVSS
VL: DIQMTQSPSSVSASVGDRVTITCRASQGISRWLAWYQQKPGKAPKLLIYAASSLQSGVPSRFSGSGSGTDFTLTISSLQPEDFATYYCQQGYVFPLTFGGGTKVEIK
B6: AB-28-3 Fab (Fab, V domains shown)
VH: QVQLQESGPGLVKPSETLSLTCAVSGYSISSGMGWGWIRQPPGKGLEWIGSVDQRGSTYYNPSLKSRVTISVDTSKNQFSLKLSSVTAADTAVYYCARDAGHGADMDVWGKGTTVTVSS
VL: DIQMTQSPSSVSASVGDRVTITCRASQGISRWLAWYQQKPGKAPKLLIYAASSLQSGVPSRFSGSGSGTDFTLTISSLQPEDFATYYCQQGYVFPLTFGGGTKVEIK

What was measured:
[1] = target: T1, LukF, F-component of Panton Valentine leukocidin (LukSF), USA300 TCH1516 strain (Staphylococcus aureus USA300 TCH1516); assay: MSD solution equilibrium, Fab with biotinylated antigen (or ForteBio)
T1 chain: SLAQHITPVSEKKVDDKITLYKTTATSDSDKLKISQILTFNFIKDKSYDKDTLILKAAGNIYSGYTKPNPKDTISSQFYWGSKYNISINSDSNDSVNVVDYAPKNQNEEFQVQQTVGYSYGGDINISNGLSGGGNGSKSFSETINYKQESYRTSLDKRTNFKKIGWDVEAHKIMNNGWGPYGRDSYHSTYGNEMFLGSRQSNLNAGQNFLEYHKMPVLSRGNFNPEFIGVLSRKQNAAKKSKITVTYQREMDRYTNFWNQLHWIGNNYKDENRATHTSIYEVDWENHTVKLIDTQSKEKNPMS

[2] = target: T2, LukD, F-component of LukED, USA300 TCH1516 strain (Staphylococcus aureus USA300 TCH1516, UniProt Q2FXB1 27-327); assay: as above
T2 sequence: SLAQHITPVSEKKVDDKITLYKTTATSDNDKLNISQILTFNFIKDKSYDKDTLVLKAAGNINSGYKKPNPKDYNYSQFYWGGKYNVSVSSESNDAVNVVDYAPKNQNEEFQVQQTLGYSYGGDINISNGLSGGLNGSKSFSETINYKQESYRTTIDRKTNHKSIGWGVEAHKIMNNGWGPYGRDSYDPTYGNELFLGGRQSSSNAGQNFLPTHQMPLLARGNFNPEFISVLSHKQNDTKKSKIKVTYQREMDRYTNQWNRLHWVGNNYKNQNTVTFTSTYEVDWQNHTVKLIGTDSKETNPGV

[3] = target: T3, HlgB, F-component of gamma-hemolysin, USA300 TCH1516 strain (Staphylococcus aureus USA300 TCH1516, UniProt P0A075 26-325); assay: as above
T3 sequence: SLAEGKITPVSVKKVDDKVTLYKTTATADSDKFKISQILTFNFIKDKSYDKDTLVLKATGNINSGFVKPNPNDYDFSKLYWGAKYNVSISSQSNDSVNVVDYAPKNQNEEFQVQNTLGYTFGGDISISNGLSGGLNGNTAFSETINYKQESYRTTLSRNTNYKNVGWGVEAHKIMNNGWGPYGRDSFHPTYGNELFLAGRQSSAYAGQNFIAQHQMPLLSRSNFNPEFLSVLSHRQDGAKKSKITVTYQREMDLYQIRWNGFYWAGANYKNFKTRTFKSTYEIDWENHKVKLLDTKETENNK

[4] = target: T1, LukF, F-component of Panton Valentine …; assay: MSD solution equilibrium, Fab with biotinylated antigen
[5] = target: T2, LukD, F-component of LukED, USA300 …; assay: as above
[6] = target: T3, HlgB, F-component of gamma-hemolysin, …; assay: as above

Binder | Kd [4] [nM] | Kd [5] [nM] | other results
B1 |  |  | Kd [1]: > 0.1 nM; Kd [2]: > 1 nM; Kd [3]: < 0.01 nM
B2 | < 0.055 | < 0.8 | 
B3 | < 0.055 | < 0.8 | 
B4 | < 0.055 | < 0.8 | 
B5 | < 0.055 | < 0.8 | 
B6 |  |  | Kd [6]: < 0.02 nM
